Laboratory results as given in article PMC7818228, “Laser‐facilitated epicutaneous immunotherapy with hypoallergenic beta‐glucan neoglycoconjugates suppresses lung inflammation and avoids local side effects in a mouse model of allergic asthma” (Allergy, 2020).

Tests used:
Test in all cases: MST; in solution; Monolith NT.115 RED; Hill fit model for multiple binding; apparent dissociation constants (Kdapp); three independent binding experiments
[1] = target: soluble murine Fc-Dectin-1a receptor (mouse) (UniProt Q6QLQ4)
soluble receptor TLR5 [2] = target: soluble receptor TLR5 (UniProt Q9JLF7)
soluble receptor TLR5 [3] = target: soluble receptor TLR5 (UniProt Q9JLF7 27-641, Supplement states soluble human TLR5 fused to an IgG1 Fc domain (Fc carrier left out; 2 copies assumed from Fc dimerisation); limits are the UniProt extracellular domain by convention; lysine/amine la); conditions: both partners purified
Chain of soluble receptor TLR5 (UniProt Q9JLF7 27-641, Supplement states soluble human TLR5 fused to an IgG1 Fc domain (Fc carrier left out; 2 copies assumed from Fc dimerisation); limits are the UniProt extracellular domain by convention; lysine/amine la) (Q9JLF7 27-641): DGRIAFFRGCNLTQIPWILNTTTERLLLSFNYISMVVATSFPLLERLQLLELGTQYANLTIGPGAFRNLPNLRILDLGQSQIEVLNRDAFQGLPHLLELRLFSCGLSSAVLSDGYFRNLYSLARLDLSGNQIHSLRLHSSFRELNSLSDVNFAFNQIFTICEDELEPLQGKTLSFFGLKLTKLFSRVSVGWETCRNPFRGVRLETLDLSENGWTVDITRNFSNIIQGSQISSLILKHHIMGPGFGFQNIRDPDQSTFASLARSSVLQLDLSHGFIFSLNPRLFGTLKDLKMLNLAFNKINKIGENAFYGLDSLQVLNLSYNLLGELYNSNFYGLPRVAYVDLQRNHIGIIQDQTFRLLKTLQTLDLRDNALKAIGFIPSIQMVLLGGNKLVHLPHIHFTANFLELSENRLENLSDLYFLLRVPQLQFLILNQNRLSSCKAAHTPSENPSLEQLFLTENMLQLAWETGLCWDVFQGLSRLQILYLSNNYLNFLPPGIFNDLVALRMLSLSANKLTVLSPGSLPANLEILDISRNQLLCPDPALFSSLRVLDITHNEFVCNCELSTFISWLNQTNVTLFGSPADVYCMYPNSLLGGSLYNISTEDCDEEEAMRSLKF

Chain of soluble murine Fc-Dectin-1a receptor (mouse) (Q6QLQ4 71-244): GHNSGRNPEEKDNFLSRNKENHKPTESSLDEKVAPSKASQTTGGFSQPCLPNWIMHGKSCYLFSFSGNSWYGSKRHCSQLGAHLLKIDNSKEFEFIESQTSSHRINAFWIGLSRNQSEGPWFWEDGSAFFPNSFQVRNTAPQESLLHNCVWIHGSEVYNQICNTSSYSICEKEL
Chain of soluble receptor TLR5 (UniProt Q9JLF7) (Q9JLF7 27-641): as the sequence (Q9JLF7 27-641) above

Row | Molecule | Kd [1] | Kdapp counted on the laminarin concentration (carbohydrate to protein ratio 0.6) [1] | Kdapp counted on the laminarin concentration (carbohydrate to protein ratio 2.5, anthrone method) [1] | Kdapp (concentration basis not stated; compared with the 0.99 µM for Dectin-1) (soluble receptor TLR5 [2]) | Kd (soluble receptor TLR5 [3])
1 | laminarin-ovalbumin neoglycoconjugate (LamOVA) (from UniProt P01012 1-386) | 170 nM | 0.99 µM | 4.22 µM | 6 µM | 
2 | ovalbumin (EndoFit Ovalbumin, endotoxin-free) (natural protein, UniProt P01012 1-386, looked up, ovalbumin (OVA), endotoxin-free commercial preparation; crystal structure 1OVA named for it; Commercial ovalbumin; also called unconjugated OVA; soluble OVA; source: bought: InvivoGen (EndoFit Ovalbumin)) MGSIGAASMEFCFDVFKELKVHHANENIFYCPIAIMSALAMVYLGAKDSTRTQINKVVRFDKLPGFGDSIEAQCGTSVNVHSSLRDILNQITKPNDVYSFSLASRLYAEERYPILPEYLQCVKELYRGGLEPINFQTAADQARELINSWVESQTNGIIRNVLQPSSVDSQTAMVLVNAIVFKGLWEKAFKDEDTQAMPFRVTEQESKPVQMMYQIGLFRVASMASEKMKILELPFASGTMSMLVLLPDEVSGLEQLESIINFEKLTEWTSSNVMEERKIKVYLPRMKMEEKYNLTSVLMAMGITDVFSSSANLSGISSAESLKISQAVHAAHAEINEAGREVVGSAEAGVDAASVSEEFRADHPFLFCIKHIATNAVLFFGRCVSP | 5330 nM |  |  |  | 800 ± 300 nM
